These results are taken from the supplement of paper PMC9112550, “Optimization of the antimicrobial peptide Bac7 by deep mutational scanning” (BMC Biology, 2022).
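Further: peptides expressed intracellularly from a pBAD plasmid library in pooled LB shake-flask culture, induced with 0.3% L-arabinose, DNA abundance read by NGS, three biological replicates, DESeq2 with apeglm shrinkage.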

This series deals with Escherichia coli TOP10. The series can be described thus: shrunken log2 fold change of peptide-encoding DNA abundance (4.5 h post-induction vs induction); higher = less antimicrobial activity (less host growth inhibition). The settings on record: time post-induction: 4.5 h; library: site-saturation at positions 5, 18, 19, 20.
RRIRLRPPRLPRPRPRPYPDPRP: the “shrunken log2 fold change” value was -0.598.

RRIRMRPPRLPRPRPRPVIPPRP: the “shrunken log2 fold change” value was -0.259.

Consider RRIRQRPPRLPRPRPRPYQCPRP, for which the “shrunken log2 fold change” value was -0.263.

RRIRSRPPRLPRPRPRPVIYPRP: the “shrunken log2 fold change” value was -0.226.

For the sequence RRIRDRPPRLPRPRPRPLRAPRP, the “shrunken log2 fold change” value came out at 1.15.

With RRIRIRPPRLPRPRPRPRTLPRP, the “shrunken log2 fold change” value is -0.259.

On to RRIRMRPPRLPRPRPRPADEPRP, for which the “shrunken log2 fold change” value was -0.0062.

On to RRIRMRPPRLPRPRPRPLTHPRP, for which the “shrunken log2 fold change” value is 0.0406.

For RRIRHRPPRLPRPRPRPCGPPRP, the “shrunken log2 fold change” value was -0.084.

With RRIRVRPPRLPRPRPRPPDNPRP, the “shrunken log2 fold change” value was -0.00642.

For the sequence RRIRDRPPRLPRPRPRPTSCPRP, the “shrunken log2 fold change” value was 0.037.

In the case of RRIRCRPPRLPRPRPRPYQWPRP, the “shrunken log2 fold change” value was -0.714.

For the sequence RRIRMRPPRLPRPRPRPSHRPRP, the “shrunken log2 fold change” value turned out to be 0.254.

As to RRIRFRPPRLPRPRPRPICFPRP, the “shrunken log2 fold change” value was -0.293.

RRIRGRPPRLPRPRPRPCGAPRP: the “shrunken log2 fold change” value amounted to 1.16.

In the case of RRIRYRPPRLPRPRPRPTIGPRP, the “shrunken log2 fold change” value is -0.31.

In the case of RRIRERPPRLPRPRPRPDNYPRP, the “shrunken log2 fold change” value was -0.0933.

In the case of RRIRGRPPRLPRPRPRPWSWPRP, the “shrunken log2 fold change” value was 1.1.

For RRIRNRPPRLPRPRPRPYSEPRP, the “shrunken log2 fold change” value is -2.12.

Take RRIRHRPPRLPRPRPRPKVSPRP: the “shrunken log2 fold change” value is -0.112.

Turning to RRIRVRPPRLPRPRPRPAHYPRP, the “shrunken log2 fold change” value was -0.113.

As for RRIRERPPRLPRPRPRPVHMPRP, the “shrunken log2 fold change” value was -0.0419.

As for RRIRFRPPRLPRPRPRPHVHPRP, the “shrunken log2 fold change” value is -0.0448.

For the sequence RRIRVRPPRLPRPRPRPMWMPRP, the “shrunken log2 fold change” value turned out to be 0.109.

In the case of RRIRVRPPRLPRPRPRPTPKPRP, the “shrunken log2 fold change” value amounted to 0.297.

For the sequence RRIRNRPPRLPRPRPRPHNDPRP, the “shrunken log2 fold change” value was -0.395.

Regarding RRIRIRPPRLPRPRPRPTCQPRP, the “shrunken log2 fold change” value is -0.215.

Regarding RRIRFRPPRLPRPRPRPLMKPRP, the “shrunken log2 fold change” value was -1.06.

As to RRIRGRPPRLPRPRPRPMIFPRP, the “shrunken log2 fold change” value stood at 0.283.

Regarding RRIRPRPPRLPRPRPRPKTPPRP, the “shrunken log2 fold change” value turned out to be 0.0677.

In the case of RRIRYRPPRLPRPRPRPEDKPRP, the “shrunken log2 fold change” value is -0.0222.

Turning to RRIRHRPPRLPRPRPRPSVEPRP, the “shrunken log2 fold change” value was -0.2.

Turning to RRIRSRPPRLPRPRPRPPLWPRP, the “shrunken log2 fold change” value turned out to be 0.704.

For the sequence RRIRHRPPRLPRPRPRPYHKPRP, the “shrunken log2 fold change” value is -0.412.

Consider RRIRRRPPRLPRPRPRPMLGPRP, for which the “shrunken log2 fold change” value was found to be 0.15.

Turning to RRIRERPPRLPRPRPRPGCWPRP, the “shrunken log2 fold change” value was 0.166.

With RRIRKRPPRLPRPRPRPFTNPRP, the “shrunken log2 fold change” value was -0.0844.

On to RRIRLRPPRLPRPRPRPIDWPRP, for which the “shrunken log2 fold change” value is -0.00448.

As for RRIRIRPPRLPRPRPRPVRVPRP, the “shrunken log2 fold change” value is 0.458.

As for RRIRYRPPRLPRPRPRPKGRPRP, the “shrunken log2 fold change” value is -0.258.

Regarding RRIRGRPPRLPRPRPRPWYHPRP, the “shrunken log2 fold change” value is -0.347.

As for RRIRGRPPRLPRPRPRPHCSPRP, the “shrunken log2 fold change” value was determined as 0.144.

As to RRIRFRPPRLPRPRPRPHFKPRP, the “shrunken log2 fold change” value is -0.599.

With RRIRRRPPRLPRPRPRPACIPRP, the “shrunken log2 fold change” value is 0.542.

As to RRIRMRPPRLPRPRPRPAYHPRP, the “shrunken log2 fold change” value was -0.157.

Consider RRIRPRPPRLPRPRPRPECWPRP, for which the “shrunken log2 fold change” value stood at 0.903.

RRIRRRPPRLPRPRPRPCMSPRP: the “shrunken log2 fold change” value is -0.00622.

Regarding RRIRHRPPRLPRPRPRPEFSPRP, the “shrunken log2 fold change” value is -0.246.

On to RRIRSRPPRLPRPRPRPNFYPRP, for which the “shrunken log2 fold change” value was -0.252.

On to RRIRVRPPRLPRPRPRPKTHPRP, for which the “shrunken log2 fold change” value is -0.0994.

In the case of RRIRCRPPRLPRPRPRPAFRPRP, the “shrunken log2 fold change” value came to 0.25.

Take RRIRVRPPRLPRPRPRPKKIPRP: the “shrunken log2 fold change” value was 0.0852.

For RRIRTRPPRLPRPRPRPGRDPRP, the “shrunken log2 fold change” value is -0.0751.

RRIRHRPPRLPRPRPRPAVDPRP: the “shrunken log2 fold change” value came to 0.0722.

With RRIRDRPPRLPRPRPRPVVSPRP, the “shrunken log2 fold change” value worked out at 0.0706.

On to RRIRVRPPRLPRPRPRPRHLPRP, for which the “shrunken log2 fold change” value was -0.222.

In the case of RRIRTRPPRLPRPRPRPVCHPRP, the “shrunken log2 fold change” value is -0.173.

Consider RRIRPRPPRLPRPRPRPGLWPRP, for which the “shrunken log2 fold change” value came out at 0.341.

For the sequence RRIRKRPPRLPRPRPRPCIVPRP, the “shrunken log2 fold change” value is -0.286.

In the case of RRIRNRPPRLPRPRPRPKQPPRP, the “shrunken log2 fold change” value amounted to 0.00591.

For RRIRVRPPRLPRPRPRPNQQPRP, the “shrunken log2 fold change” value amounted to 0.0476.

In the case of RRIRERPPRLPRPRPRPGCLPRP, the “shrunken log2 fold change” value is -0.017.

With RRIRVRPPRLPRPRPRPIHEPRP, the “shrunken log2 fold change” value amounted to 0.0255.

Take RRIRSRPPRLPRPRPRPQYSPRP: the “shrunken log2 fold change” value is -0.165.

As to RRIRDRPPRLPRPRPRPQDGPRP, the “shrunken log2 fold change” value is 0.0175.

Regarding RRIRERPPRLPRPRPRPYITPRP, the “shrunken log2 fold change” value is -1.07.

As for RRIRMRPPRLPRPRPRPKAAPRP, the “shrunken log2 fold change” value was found to be 3.33.

Regarding RRIRSRPPRLPRPRPRPTRDPRP, the “shrunken log2 fold change” value is 0.701.

On to RRIRKRPPRLPRPRPRPKDAPRP, for which the “shrunken log2 fold change” value is -0.0585.

Turning to RRIRTRPPRLPRPRPRPQGWPRP, the “shrunken log2 fold change” value was found to be 0.704.

Turning to RRIRARPPRLPRPRPRPAVMPRP, the “shrunken log2 fold change” value came out at 0.399.

Turning to RRIRQRPPRLPRPRPRPIMWPRP, the “shrunken log2 fold change” value amounted to 0.0394.

For RRIRIRPPRLPRPRPRPSAFPRP, the “shrunken log2 fold change” value is -0.15.

RRIRPRPPRLPRPRPRPNRVPRP: the “shrunken log2 fold change” value is -0.275.

Consider RRIRMRPPRLPRPRPRPGDFPRP, for which the “shrunken log2 fold change” value was 0.215.

Take RRIRRRPPRLPRPRPRPHMVPRP: the “shrunken log2 fold change” value was -0.355.

As for RRIRIRPPRLPRPRPRPCQYPRP, the “shrunken log2 fold change” value was -1.06.

As for RRIRIRPPRLPRPRPRPWYNPRP, the “shrunken log2 fold change” value was -0.343.

As for RRIRNRPPRLPRPRPRPWLDPRP, the “shrunken log2 fold change” value was -0.029.

For RRIRRRPPRLPRPRPRPFAHPRP, the “shrunken log2 fold change” value is -0.00279.

For RRIRPRPPRLPRPRPRPCRQPRP, the “shrunken log2 fold change” value is 0.111.

As for RRIRYRPPRLPRPRPRPWLYPRP, the “shrunken log2 fold change” value is -0.613.

For the sequence RRIRWRPPRLPRPRPRPPTNPRP, the “shrunken log2 fold change” value was 0.433.

In the case of RRIRVRPPRLPRPRPRPDMDPRP, the “shrunken log2 fold change” value is -0.154.

Turning to RRIRNRPPRLPRPRPRPQRIPRP, the “shrunken log2 fold change” value is -0.47.

Turning to RRIRMRPPRLPRPRPRPQRDPRP, the “shrunken log2 fold change” value amounted to 0.0785.

For RRIRERPPRLPRPRPRPMQTPRP, the “shrunken log2 fold change” value was 0.0432.

On to RRIRGRPPRLPRPRPRPNWHPRP, for which the “shrunken log2 fold change” value is 0.27.

For RRIRCRPPRLPRPRPRPDVHPRP, the “shrunken log2 fold change” value was -0.241.

On to RRIRNRPPRLPRPRPRPQSRPRP, for which the “shrunken log2 fold change” value came out at 0.181.

For RRIRARPPRLPRPRPRPDKVPRP, the “shrunken log2 fold change” value stood at 0.0597.

In the case of RRIRVRPPRLPRPRPRPSKPPRP, the “shrunken log2 fold change” value is -0.242.

As for RRIRVRPPRLPRPRPRPACQPRP, the “shrunken log2 fold change” value worked out at 0.168.

Turning to RRIRERPPRLPRPRPRPRYAPRP, the “shrunken log2 fold change” value is -0.118.

For RRIRSRPPRLPRPRPRPENQPRP, the “shrunken log2 fold change” value was -0.0853.

In the case of RRIRQRPPRLPRPRPRPDMHPRP, the “shrunken log2 fold change” value turned out to be 0.161.

Take RRIRLRPPRLPRPRPRPWLPPRP: the “shrunken log2 fold change” value was -0.464.

In the case of RRIRCRPPRLPRPRPRPPLLPRP, the “shrunken log2 fold change” value was -0.0189.

Regarding RRIRPRPPRLPRPRPRPWKGPRP, the “shrunken log2 fold change” value was determined as 0.0625.

For the sequence RRIRPRPPRLPRPRPRPRAWPRP, the “shrunken log2 fold change” value is 0.0147.

As to RRIRVRPPRLPRPRPRPVPKPRP, the “shrunken log2 fold change” value is 0.128.

RRIRMRPPRLPRPRPRPSTIPRP: the “shrunken log2 fold change” value was -0.23.

Take RRIRARPPRLPRPRPRPDTVPRP: the “shrunken log2 fold change” value is -0.125.

Turning to RRIRIRPPRLPRPRPRPIVYPRP, the “shrunken log2 fold change” value was -0.383.

On to RRIRLRPPRLPRPRPRPKGFPRP, for which the “shrunken log2 fold change” value was -0.109.

With RRIRQRPPRLPRPRPRPEAHPRP, the “shrunken log2 fold change” value is 0.0944.

On to RRIRRRPPRLPRPRPRPSGSPRP, for which the “shrunken log2 fold change” value was -0.0977.

Regarding RRIRNRPPRLPRPRPRPQGHPRP, the “shrunken log2 fold change” value is -0.296.

Regarding RRIRIRPPRLPRPRPRPTAHPRP, the “shrunken log2 fold change” value was -0.313.

As for RRIRGRPPRLPRPRPRPHDVPRP, the “shrunken log2 fold change” value is 0.118.

As to RRIRKRPPRLPRPRPRPLITPRP, the “shrunken log2 fold change” value was 0.0992.

Take RRIRPRPPRLPRPRPRPRLAPRP: the “shrunken log2 fold change” value was 0.507.

Take RRIRVRPPRLPRPRPRPHKAPRP: the “shrunken log2 fold change” value was -0.0103.

As to RRIRYRPPRLPRPRPRPESQPRP, the “shrunken log2 fold change” value is -0.0411.

As to RRIRKRPPRLPRPRPRPRTRPRP, the “shrunken log2 fold change” value came to 0.618.

On to RRIRYRPPRLPRPRPRPRHRPRP, for which the “shrunken log2 fold change” value amounted to 0.0433.

RRIRERPPRLPRPRPRPKPDPRP: the “shrunken log2 fold change” value is 0.0317.

For RRIRHRPPRLPRPRPRPEYRPRP, the “shrunken log2 fold change” value is -0.0136.

With RRIRERPPRLPRPRPRPLWFPRP, the “shrunken log2 fold change” value amounted to 0.174.

Regarding RRIRKRPPRLPRPRPRPQQTPRP, the “shrunken log2 fold change” value was -0.0533.

Take RRIRARPPRLPRPRPRPDKSPRP: the “shrunken log2 fold change” value was -0.169.

As to RRIRHRPPRLPRPRPRPSVMPRP, the “shrunken log2 fold change” value was -0.19.

As to RRIRERPPRLPRPRPRPNCSPRP, the “shrunken log2 fold change” value was -0.202.

As to RRIRKRPPRLPRPRPRPPTHPRP, the “shrunken log2 fold change” value amounted to 0.42.

For RRIRPRPPRLPRPRPRPQVVPRP, the “shrunken log2 fold change” value is -0.00675.
